Ends that are not written are not given here.

The target of test [1] is GST-BCL-2δC21 fusion protein [GST: P08515]. As to the kind of experiment: fluorescence polarization, 25 nM fluorescein-peptide titrated with GST-BCL-2, 37 C.
Test [2] has the same target. As to the kind of experiment: fluorescence polarization, unlabelled peptide displacing 25 nM fluoresceinated BIDBH3 from 1 µM GST-BCL-2.
For test [3] the target is unchanged. As to the kind of experiment: fluorescence polarization, unlabelled peptide displacing 25 nM fluoresceinated BIDBH3 from 1 µM GST-BCL-2; SD +/- 60.
The target is the same in test [4]. As to the kind of experiment: fluorescence polarization, 25 nM fluorescein-peptide titrated with GST-BCL-2, 37 C; SD +/- 6.
The target is the same in test [5]. Put plainly: fluorescence polarization, unlabelled peptide displacing 25 nM fluoresceinated BIDBH3 from 1 µM GST-BCL-2; SD +/- 1648.
Test [6] shares this target. As to the kind of experiment: fluorescence polarization, 25 nM fluorescein-peptide titrated with GST-BCL-2, 37 C; SD +/- 272.
Test [7] has the same target. As to the kind of experiment: fluorescence polarization, 25 nM fluorescein-peptide titrated with GST-BCL-2, 37 C; SD +/- 11.
For test [8] the target is unchanged. Put plainly: fluorescence polarization, Kd of BADBH3 against Kd of BIDBH3 on BCL-2.

In test [1], NOXABBH3 (peptide) yielded a Kd above 1000 nM. The molecule further displayed an IC50 in test [2] above 30000 nM.

As for NOXAABH3 (peptide), the Kd in test [1] was above 1000 nM. This molecule also registered an IC50 in test [2] above 30000 nM.

B1: BIDBH3 mut (peptide)
peptide: EDIIRNIARHAAQVGASMDR
modifications: not fully specified
Molecule B1 had a Kd in test [1] above 1000 nM. For the same molecule, the IC50 in test [2] was above 30000 nM.

B2: mBADBH3 (peptide)
peptide: LWAAQRYGRELRRMSDEFEGSFKGL
modifications: not fully specified
In turn, B2 showed an IC50 in test [3] of 173 nM. Further, the Kd in test [4] was 39 nM.

B3: BIKBH3 (peptide)
peptide: MEGSDALALRLACIGDEMDV
modifications: not fully specified
Regarding B3, in test [5], the IC50 came out at 4920 nM. In addition, in test [6], the Kd was 485 nM.

B4: BADBH3 (peptide)
peptide: NLWAAQRYGRELRRMSDEFVDSFKK
modifications: not fully specified
B4 returned a Kd in test [7] of 41 nM. Also, in test [8], the fold greater affinity than BIDBH3 peptide amounted to 5 fold.

B5: BCLXBH3 (peptide)
peptide: VIPMAAVKQALREAGDEFEL
modifications: fluorescein at the amino-terminus via an AHA linker in the Kd assays; unlabelled as competitor and on mitochondria
B5 returned a Kd in test [1] above 1000 nM. Moreover, in test [2], the IC50 was above 30000 nM.

The record behind these values is patent US20160200786A1.
